Data on 2 variants can be found in IntAct's records for PubMed 24843043.

First the molecules themselves.
B1: Outer mitochondrial transmembrane helix translocase (Saccharomyces cerevisiae), P28737 (parent)
chain: MSRKFDLKTITDLSVLVGTGISLYYLVSRLLNDVESGPLSGKSRESKAKQSLQWEKLVKRSPALAEVTLDAYERTILSSIVTPDEINITFQDIGGLDPLISDLHESVIYPLMMPEVYSNSPLLQAPSGVLLYGPPGCGKTMLAKALAKESGANFISIRMSSIMDKWYGESNKIVDAMFSLANKLQPCIIFIDEIDSFLRERSSTDHEVTATLKAEFMTLWDGLLNNGRVMIIGATNRINDIDDAFLRRLPKRFLVSLPGSDQRYKILSVLLKDTKLDEDEFDLQLIADNTKGFSGSDLKELCREAALDAAKEYIKQKRQLIDSGTIDVNDTSSLKIRPLKTKDFTKKLRMDATSTLSSQPLD
partner: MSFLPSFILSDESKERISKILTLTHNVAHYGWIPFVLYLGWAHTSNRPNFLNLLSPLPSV
B2: Outer mitochondrial transmembrane helix translocase (Saccharomyces cerevisiae), P28737 (parent)
chain: B1 chain
partner: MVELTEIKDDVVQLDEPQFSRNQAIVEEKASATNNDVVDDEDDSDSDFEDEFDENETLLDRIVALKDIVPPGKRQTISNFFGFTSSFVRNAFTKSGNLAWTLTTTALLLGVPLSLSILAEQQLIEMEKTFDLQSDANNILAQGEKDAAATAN

The first assay covers variants of B1. To be noted: with tom7_yeast TOM7, P53507.
Regarding E193Q, the “effect of a mutation on the interaction” value was “increasing interaction”.

In a further assay the parent is B2. The settings on record: with tom22_yeast TOM22, P49334.
On to E193Q, for which the “effect of a mutation on the interaction” value is on record as “increasing interaction”.
